The target in the experiment is BAD16-C (residues 204-352, B. afzelii strain PGau) (Borrelia afzelii strain PGau). Nature of the experiment: SPR; Biacore T200, 25°C; borrelial protein immobilised by amine coupling; C1r as analyte, single-cycle kinetics, five-fold dilution series 1.6 to 1000 nM; HBS-T with 5 mM CaCl2; 1:1 kinetic fit; triplicate.

Broadly, the Kd is the free concentration of one partner at which half of the binding sites on the other are occupied at equilibrium, for simple one-to-one binding. Higher therefore signals lower affinity. In general, koff refers to the rate constant with which the complex falls apart. A high value points to a short-lived complex. One may read the kon as the rate constant with which the complex forms. A higher kon goes with faster complex formation.

B1: human C1r, full-length enzyme (enzyme)
chain: SIPIPQKLFGEVTSPLFPKPYPNNFETTTVITVPTGYRVKLVFQQFDLEPSEGCFYDYVKISADKKSLGRFCGQLGSPLGNPPGKKEFMSQGNKMLLTFHTDFSNEENGTIMFYKGFLAYYQAVDLDECASRSKSGEEDPQPQCQHLCHNYVGGYFCSCRPGYELQEDTHSCQAECSSELYTEASGYISSLEYPRSYPPDLRCNYSIRVERGLTLHLKFLEPFDIDDHQQVHCPYDQLQIYANGKNIGEFCGKQRPPDLDTSSNAVDLLFFTDESGDSRGWKLRYTTEIIKCPQPKTLDEFTIIQNLQPQYQFRDYFIATCKQGYQLIEGNQVLHSFTAVCQDDGTWHRAMPRCKIKDCGQPRNLPNGDFRYTTTMGVNTYKARIQYYCHEPYYKMQTRAGSRESEQGVYTCTAQGIWKNEQKGEKIPRCLPVCGKPVNPVEQRQRIIGGQKAKMGNFPWQVFTNIHGRGGGALLGDRWILTAAHTLYPKEHEAQSNASLDVFLGHTNVEELMKLGNHPIRRVSVHPDYRQDESYNFEGDIALLELENSVTLGPNLLPICLPDNDTFYDLGLMGYVSGFGVMEEKIAHDLRFVRLPVANPQACENWLRGKNRMDVFSQNMFCAGHPSLKQDACQGDSGGVFAVRDPNTDRWVATGIVSWGIGCSRGYGFYTKVLNYVDWIKKEMEEED
Regarding B1, the Kd amounted to 2.2 nM, the koff was found to be 4.3e-05 s⁻¹ and the kon turned out to be 19000 M⁻¹ s⁻¹.

Source of the values: paper PMC6445466.
